Experimental data published in US20140018302A1 (SALK INSTITUTE FOR BIOLOGICAL STUDIES INTELLECTUAL PROPERTY …, published 2014).
Positions of bridges follow the written chain, without caps; N, C: chain ends. Non-standard residues stand in square brackets, D forms with d. No end group written: not given here. *: point of attachment. FITC = O=C1OC2(c3ccc(O)cc3Oc3cc(O)ccc32)c2ccc(NC(=S)*)cc21; R8 = C=CCCCCCC[C@@](C)(N)C(=O)O; S5 = C=CCCC[C@](C)(N)C(=O)O

T1: recombinant full-length HDMX (UniProt O15151 1-490)
T1 construct: mature; Full-length protein after TEV cleavage of the tags; also called HDM4
T1 sequence (looked up): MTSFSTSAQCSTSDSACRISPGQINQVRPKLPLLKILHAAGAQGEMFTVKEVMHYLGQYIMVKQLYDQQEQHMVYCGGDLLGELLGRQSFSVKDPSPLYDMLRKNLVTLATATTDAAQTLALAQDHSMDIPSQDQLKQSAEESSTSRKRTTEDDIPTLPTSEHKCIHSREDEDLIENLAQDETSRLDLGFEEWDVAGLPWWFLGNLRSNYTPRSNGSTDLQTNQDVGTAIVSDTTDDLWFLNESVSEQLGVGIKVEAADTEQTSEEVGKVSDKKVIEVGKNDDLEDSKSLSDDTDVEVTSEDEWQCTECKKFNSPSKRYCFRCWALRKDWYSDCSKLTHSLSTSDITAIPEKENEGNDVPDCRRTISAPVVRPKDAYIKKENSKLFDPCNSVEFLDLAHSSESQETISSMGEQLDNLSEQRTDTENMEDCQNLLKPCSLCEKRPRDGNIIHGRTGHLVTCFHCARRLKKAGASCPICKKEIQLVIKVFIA

T2: native HDMX (intracellular, in SJSA-X, JEG-3 and MCF-7 cells) (UniProt O15151 1-490)
T2 construct: mature; Cellular protein in co-immunoprecipitation experiments; In SJSA-X cells it is overexpressed by engineering; also called intracellular HDMX
T2 sequence (looked up): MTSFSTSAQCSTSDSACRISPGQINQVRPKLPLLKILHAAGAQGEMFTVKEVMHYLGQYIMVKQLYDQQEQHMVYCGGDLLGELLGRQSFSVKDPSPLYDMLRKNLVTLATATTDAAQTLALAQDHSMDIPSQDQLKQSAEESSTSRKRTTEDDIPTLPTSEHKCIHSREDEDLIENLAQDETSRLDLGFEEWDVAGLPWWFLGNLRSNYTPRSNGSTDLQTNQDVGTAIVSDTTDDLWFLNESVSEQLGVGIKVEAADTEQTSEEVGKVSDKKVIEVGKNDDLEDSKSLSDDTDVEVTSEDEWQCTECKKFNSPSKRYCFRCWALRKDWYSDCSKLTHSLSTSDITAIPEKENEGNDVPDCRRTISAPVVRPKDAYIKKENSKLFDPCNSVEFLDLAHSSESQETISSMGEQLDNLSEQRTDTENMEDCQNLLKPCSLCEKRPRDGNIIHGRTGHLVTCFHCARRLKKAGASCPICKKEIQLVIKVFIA


Columns and labels:
[1] = biological target: T1, recombinant full-length HDMX; experiment: fluorescence polarization, 25 nM FITC-peptide
Experimental: Fluorescence polarization was then measured at equilibrium on a SpectraMax M5 microplate reader (Molecular Devices).

[2] = biological target: T3, native HDM2 (intracellular, in SJSA-X cells) (UniProt Q00987 1-491, limits assumed); experiment: anti-FITC pull-down from SJSA-X cells, HDM2 western
T3 construct: mature; Cellular protein in the anti-FITC pull-down; also called intracellular HDM2
T3 sequence (Q00987 whole entry): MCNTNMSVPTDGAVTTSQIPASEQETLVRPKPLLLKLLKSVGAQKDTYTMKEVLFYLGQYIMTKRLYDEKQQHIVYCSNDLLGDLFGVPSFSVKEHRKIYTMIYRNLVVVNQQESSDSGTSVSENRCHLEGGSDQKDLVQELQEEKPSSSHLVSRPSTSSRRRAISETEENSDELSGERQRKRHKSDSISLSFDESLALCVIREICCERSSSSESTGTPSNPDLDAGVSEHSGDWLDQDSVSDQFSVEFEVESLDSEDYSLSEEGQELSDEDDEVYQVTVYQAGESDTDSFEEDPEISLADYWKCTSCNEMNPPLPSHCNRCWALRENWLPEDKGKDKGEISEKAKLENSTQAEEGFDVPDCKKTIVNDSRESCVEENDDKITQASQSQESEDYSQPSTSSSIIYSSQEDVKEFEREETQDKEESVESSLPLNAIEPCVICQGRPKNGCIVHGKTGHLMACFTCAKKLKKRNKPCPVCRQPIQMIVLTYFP

[3] = biological target: T2, native HDMX (intracellular, in SJSA-X, …); experiment: anti-FITC pull-down from SJSA-X cells, HDMX western

| Binder | binding result [1] | binding result [2] | binding result [3] |
| --- | --- | --- | --- |
| {FITC}-LSQETFSDLWKLLPEN (Unstapled wild-type peptide, FITC-labeled in the FP assay; also called wild type p53 peptide) [FITC-WT-p53 14-29] | no binding (tested: 25 pM-100 nM protein) |  |  |
| QSQQTA[R8]NLWRLL[S5]QN (staple 7-14; not fully specified (N-terminus, C-terminus); also: N-terminal FITC in binding assays, also called FITC-SAH-p53-8F19A) [SAH-p53-8F19A] | no binding (tested: 25 pM-100 nM protein) | no binding (tested: 15 uM peptide on cells) | no binding (tested: 15 uM peptide on cells) |
